Experimental data as given in paper PMC4682845.

Biological target: MERS-CoV main protease (M^pro), wild type, authentic N-terminus (MERS-CoV)
Test: AUC

Sequence of MERS-CoV main protease (M^pro), wild type, authentic N-terminus (enzyme) (K9N638 3248-3553 limits assumed): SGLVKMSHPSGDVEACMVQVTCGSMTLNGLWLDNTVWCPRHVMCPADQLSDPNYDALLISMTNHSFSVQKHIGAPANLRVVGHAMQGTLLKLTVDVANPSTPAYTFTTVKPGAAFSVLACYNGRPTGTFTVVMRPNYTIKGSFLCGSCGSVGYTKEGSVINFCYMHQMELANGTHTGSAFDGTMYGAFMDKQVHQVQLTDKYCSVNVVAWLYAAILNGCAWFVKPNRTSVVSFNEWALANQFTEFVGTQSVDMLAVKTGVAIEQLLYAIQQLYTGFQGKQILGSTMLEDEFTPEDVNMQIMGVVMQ

MERS-CoV main protease (M^pro), wild type, authentic N-terminus (enzyme)
percent dimer: 70%
